In article PMC3743106 (Extremophiles : life under extreme conditions, 2013):
Several values for one entry are separate records, joined by “and”; a condition that tells them apart may be missing. Equal entries are not always repeated.

B1: Thermococcus kodakarensis PCNA1 (proliferating cell nuclear antigen 1, encoded by TK0535) (natural protein, UniProt Q5JF32 1-249, looked up)
chain: MPFEVVFDGAKEFADLIATASNLIDEAAFKFTEEGISMRAMDPSRVVLIDLNLPESIFSKYEVEEPETIGINMDQFKKILKRGKAKDTLILRKGDENFLEITFEGTAKRTFRLPLIDVEELELELPELPFTAKVVLLGEVLKEGIKDASLVSDAIKFIAKENEFTMKAEGETNEVEIRLTLEDEGLLDLEVEEETKSAYGIRYLSDMVKGIGKADEVILRFGNEMPLQMEYMIRDEGRLTFLLAPRVEE
B2: Thermococcus kodakarensis PCNA2 (proliferating cell nuclear antigen 2, encoded by TK0582) (natural protein, UniProt Q5JFD3 1-253, looked up)
chain: MTFEIVFDSAREFESLIATLEKFFDEAVFQVNMEGIQMRAIDPSRVVLVDLNLPEMLFSKYSVESEEAIAFDLKRFLKVLKLARSRDTLVLRKGGENFLEVGLLGDENTWFKLPLIDANTPEIEIPSLPWTVKAVVLAGALKRAVKAAKLVSDSIYFMATPEKLTFKAEGNDSEVRTVLTMEDPGLLDLEHKMTKAKSAYGVAYLEDILRSLADADEVIIRFGFDIPLLLKYMVRDAGEVSFLIAPRVEEGRS

Key:
[1] = target: Thermococcus kodakarensis replication factor C large subunit (Thermococcus kodakarensis) (UniProt Q5JHP1); test: SEC
Sequence of Thermococcus kodakarensis replication factor C large subunit (Thermococcus kodakarensis) (Q5JHP1 whole entry): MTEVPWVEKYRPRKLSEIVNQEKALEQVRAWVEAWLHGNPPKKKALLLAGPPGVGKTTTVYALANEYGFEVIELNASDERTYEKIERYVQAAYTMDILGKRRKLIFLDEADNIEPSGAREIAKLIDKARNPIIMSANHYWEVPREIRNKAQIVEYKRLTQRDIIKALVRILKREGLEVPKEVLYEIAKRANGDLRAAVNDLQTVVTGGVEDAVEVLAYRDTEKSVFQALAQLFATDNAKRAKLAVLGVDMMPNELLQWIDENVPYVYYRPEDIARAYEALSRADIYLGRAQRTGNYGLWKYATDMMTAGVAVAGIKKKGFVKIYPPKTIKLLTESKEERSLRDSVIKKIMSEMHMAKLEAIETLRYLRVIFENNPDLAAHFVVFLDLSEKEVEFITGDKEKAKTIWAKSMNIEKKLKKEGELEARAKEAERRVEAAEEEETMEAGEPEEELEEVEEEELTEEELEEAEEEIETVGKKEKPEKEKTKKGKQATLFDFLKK

SEC = target: the molecule itself; test: SEC

Molecule | stoichiometry N [1] | stoichiometry N (SEC)
Thermococcus kodakarensis replication factor C small subunit (natural protein) | 4 | 
B1 |  | 2 and 3
B2 |  | 3 and 6
